In test [1] the target is T1, BRCA1 S1655F (human, UniProt P38398 1-1863).
T1 construct: 3xFLAG-tagged bait; also called BRCT domain mutant S1655F; 51655F
Briefly: AP-MS, MSstats WT vs mutant, MDA-MB-231 cells.

The target in test [2] is T2, BRCA1 M1775R (human, UniProt P38398 1-1863).
T2 construct: 3xFLAG-tagged bait; also called BRCT domain mutant M1775R
Briefly: AP-MS, MSstats WT vs mutant, MDA-MB-231 cells.

The target of test [3] is T3, BRCA1 5382insC (human, UniProt P38398 1-1755, limits assumed).
T3 construct: 3xFLAG-tagged bait; also called 5832insC
Nature of the test: AP-MS, MSstats WT vs mutant, MDA-MB-231 cells.

Test [4] addresses AKT1 E17K mutant (human, UniProt P31749 1-480). Nature of the test: AP-MS, 3xFLAG bait, breast cell lines.

Sequence of AKT1 E17K mutant (P31749 whole entry E17K): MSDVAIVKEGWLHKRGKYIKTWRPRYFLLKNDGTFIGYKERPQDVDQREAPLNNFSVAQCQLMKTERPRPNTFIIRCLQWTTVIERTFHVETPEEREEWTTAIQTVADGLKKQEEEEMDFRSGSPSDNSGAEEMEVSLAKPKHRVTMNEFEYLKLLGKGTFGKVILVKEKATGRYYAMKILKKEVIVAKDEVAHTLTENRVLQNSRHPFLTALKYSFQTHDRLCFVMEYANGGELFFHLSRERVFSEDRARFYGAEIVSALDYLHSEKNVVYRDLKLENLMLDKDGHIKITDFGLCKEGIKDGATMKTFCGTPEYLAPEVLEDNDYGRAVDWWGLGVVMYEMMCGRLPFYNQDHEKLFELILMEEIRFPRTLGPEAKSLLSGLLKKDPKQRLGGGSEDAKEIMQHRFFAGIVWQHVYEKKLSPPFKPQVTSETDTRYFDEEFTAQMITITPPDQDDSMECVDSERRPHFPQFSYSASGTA

B1: BRIP1 (enzyme, human, UniProt Q9BX63 1-1249, looked up)
chain: MSSMWSEYTIGGVKIYFPYKAYPSQLAMMNSILRGLNSKQHCLLESPTGSGKSLALLCSALAWQQSLSGKPADEGVSEKAEVQLSCCCACHSKDFTNNDMNQGTSRHFNYPSTPPSERNGTSSTCQDSPEKTTLAAKLSAKKQASIYRDENDDFQVEKKRIRPLETTQQIRKRHCFGTEVHNLDAKVDSGKTVKLNSPLEKINSFSPQKPPGHCSRCCCSTKQGNSQESSNTIKKDHTGKSKIPKIYFGTRTHKQIAQITRELRRTAYSGVPMTILSSRDHTCVHPEVVGNFNRNEKCMELLDGKNGKSCYFYHGVHKISDQHTLQTFQGMCKAWDIEELVSLGKKLKACPYYTARELIQDADIIFCPYNYLLDAQIRESMDLNLKEQVVILDEAHNIEDCARESASYSVTEVQLRFARDELDSMVNNNIRKKDHEPLRAVCCSLINWLEANAEYLVERDYESACKIWSGNEMLLTLHKMGITTATFPILQGHFSAVLQKEEKISPIYGKEEAREVPVISASTQIMLKGLFMVLDYLFRQNSRFADDYKIAIQQTYSWTNQIDISDKNGLLVLPKNKKRSRQKTAVHVLNFWCLNPAVAFSDINGKVQTIVLTSGTLSPMKSFSSELGVTFTIQLEANHIIKNSQVWVGTIGSGPKGRNLCATFQNTETFEFQDEVGALLLSVCQTVSQGILCFLPSYKLLEKLKERWLSTGLWHNLELVKTVIVEPQGGEKTNFDELLQVYYDAIKYKGEKDGALLVAVCRGKVSEGLDFSDDNARAVITIGIPFPNVKDLQVELKRQYNDHHSKLRGLLPGRQWYEIQAYRALNQALGRCIRHRNDWGALILVDDRFRNNPSRYISGLSKWVRQQIQHHSTFESALESLAEFSKKHQKVLNVSIKDRTNIQDNESTLEVTSLKYSTSPYLLEAASHLSPENFVEDEAKICVQELQCPKIITKNSPLPSSIISRKEKNDPVFLEEAGKAEKIVISRSTSPTFNKQTKRVSWSSFNSLGQYFTGKIPKATPELGSSENSASSPPRFKTEKMESKTVLPFTDKCESSNLTVNTSFGSCPQSETIISSLKIDATLTRKNHSEHPLCSEEALDPDIELSLVSEEDKQSTSNRDFETEAEDESIYFTPELYDPEDTDEEKNDLAETDRGNRLANNSDCILAKDLFEIRTIKEVDSAREVKAEDCIDTKLNGILHIEESKIDDIDGNVKTTWINELELGKTHEIEIKNFKPSPSKNKGMFPGFK
notes: endogenous prey from cell lysate
For B1, the binding result in test [1], in test [2] and in test [3] was “no binding” throughout.

B2: RBBP8 (other, human, UniProt Q99708 1-897, looked up)
chain: MNISGSSCGSPNSADTSSDFKDLWTKLKECHDREVQGLQVKVTKLKQERILDAQRLEEFFTKNQQLREQQKVLHETIKVLEDRLRAGLCDRCAVTEEHMRKKQQEFENIRQQNLKLITELMNERNTLQEENKKLSEQLQQKIENDQQHQAAELECEEDVIPDSPITAFSFSGVNRLRRKENPHVRYIEQTHTKLEHSVCANEMRKVSKSSTHPQHNPNENEILVADTYDQSQSPMAKAHGTSSYTPDKSSFNLATVVAETLGLGVQEESETQGPMSPLGDELYHCLEGNHKKQPFEESTRNTEDSLRFSDSTSKTPPQEELPTRVSSPVFGATSSIKSGLDLNTSLSPSLLQPGKKKHLKTLPFSNTCISRLEKTRSKSEDSALFTHHSLGSEVNKIIIQSSNKQILINKNISESLGEQNRTEYGKDSNTDKHLEPLKSLGGRTSKRKKTEEESEHEVSCPQASFDKENAFPFPMDNQFSMNGDCVMDKPLDLSDRFSAIQRQEKSQGSETSKNKFRQVTLYEALKTIPKGFSSSRKASDGNCTLPKDSPGEPCSQECIILQPLNKCSPDNKPSLQIKEENAVFKIPLRPRESLETENVLDDIKSAGSHEPIKIQTRSDHGGCELASVLQLNPCRTGKIKSLQNNQDVSFENIQWSIDPGADLSQYKMDVTVIDTKDGSQSKLGGETVDMDCTLVSETVLLKMKKQEQKGEKSSNEERKMNDSLEDMFDRTTHEEYESCLADSFSQAADEEEELSTATKKLHTHGDKQDKVKQKAFVEPYFKGDERETSLQNFPHIEVVRKKEERRKLLGHTCKECEIYYADMPAEEREKKLASCSRHRFRYIPPNTPENFWEVGFPSTQTCMERGYIKEDLDPCPRPKRRQPYNAIFSPKGKEQKT
notes: as for B1
On to B2, for which the binding result in test [1], in test [2] and in test [3] was “no binding” each time.

B3: CSTB (other, human, UniProt P04080 1-98, looked up)
chain: MMCGAPSATQPATAETQHIADQVRSQLEEKENKKFPVFKAVSFKSQVVAGTNYFIKVHVGDEDFVHLRVFQSLPHENKPLTLSNYQTNKAKHDELTYF
notes: as for B1
Take B3: in test [4], the binding result is “no binding”.

The values are drawn from patent US20240321457A1 (University of California, published 2024).
